In series [1] the test system is SlSWIBb (Solanum lycopersicum). The experiment in a line: MST. The conditions noted are these: MST: 50 mM Tris-HCl pH 8.0, 150 mM NaCl, 0.05% Tween-20, 25 C.
Series [2] deals with SlSWIBb-L44A (Solanum lycopersicum). The experiment in a line: MST. The conditions noted are these: MST: 50 mM Tris-HCl pH 8.0, 150 mM NaCl, 0.05% Tween-20, 25 C.
Series [3] relates to SlSWIBb-K86A (Solanum lycopersicum). The experiment in a line: MST. The conditions noted are these: MST: 50 mM Tris-HCl pH 8.0, 150 mM NaCl, 0.05% Tween-20, 25 C.
Series [4] concerns SlSWIBb-R6A (Solanum lycopersicum). The experiment in a line: MST. The conditions noted are these: MST: 50 mM Tris-HCl pH 8.0, 150 mM NaCl, 0.05% Tween-20, 25 C.
Series [5] addresses T1, SlGATA29 (Solanum lycopersicum, UniProt UPI0002BCBC7B 34-326).
T1 sequence: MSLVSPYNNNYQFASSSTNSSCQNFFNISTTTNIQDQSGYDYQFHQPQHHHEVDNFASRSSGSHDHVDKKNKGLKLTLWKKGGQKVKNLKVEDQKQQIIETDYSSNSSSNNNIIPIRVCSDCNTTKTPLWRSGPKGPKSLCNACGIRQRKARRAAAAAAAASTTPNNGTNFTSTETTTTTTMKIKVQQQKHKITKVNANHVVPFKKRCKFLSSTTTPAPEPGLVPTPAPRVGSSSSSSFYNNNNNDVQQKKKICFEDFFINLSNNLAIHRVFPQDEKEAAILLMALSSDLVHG
As to the kind of experiment: EMSA. Background: Mobility shift assays separate free from complexed probe on a gel.

In series [6] the target is SlSWIBa-allmut (Solanum lycopersicum, UniProt A0A3Q7HR54 1-124, R6A;L46A;K88A). As to the kind of experiment: MST.
The target of series [7] is SlSWIBa (Solanum lycopersicum, UniProt A0A3Q7HR54 1-124). As to the kind of experiment: EMSA.

For “GAATATATGAACATATTAAAAGTGACATTATAAGAAATGATAAAATTCAAAATTAAGGTG (double strand) [60bp InDel, Cy5]”, the dissociation constant (Kd) amounted to 0.035 µM in series [1], 0.047 µM in series [2], 0.042 µM in series [3] and 0.04 µM in series [4].

B1: probe-60bp (dsDNA)
DNA 1: GAATATATGAACATATTAAAAGTGACATTATAAGAAATGATAAAATTCAAAATTAAGGTG
DNA 2: CACCTTAATTTTGAATTTTATCATTTCTTATAATGTCACTTTTAATATGTTCATATATTC
For the molecule B1, in series [5], the binding result was “binds”.

B2: 60bp InDel, Cy5 (dsDNA)
DNA 1: GAATATATGAACATATTAAAAGTGACATTATAAGAAATGATAAAATTCAAAATTAAGGTG
DNA 2: CACCTTAATTTTGAATTTTATCATTTCTTATAATGTCACTTTTAATATGTTCATATATTC
Take B2: the binding result in series [6] is reported as “no binding”.

B3: 30bpSWIB-mu4 (dsDNA)
DNA 1: TAAGAAATGATAAAATTCAAAATTAAGGTG
DNA 2: CACCTTAATTTTGAATTTTATCATTTCTTA
Turning to B3, the binding result in series [7] was “no binding”.

By Kd is commonly meant the equilibrium constant for the complex coming apart. Higher therefore signals lower affinity.

The values are drawn from publication PMC11303406.
